Laboratory results taken from patent US20130131320A1 (TOHOKU UNIVERSITY, published 2013).

biological target: T1, soluble EGFR (human epithelial cell growth factor receptor 1, Her1) (human, UniProt P00533 25-645, limits assumed); test: ITC; lower end tied to 5.0.0 by Table 4 (14.9 against 1.9)
T1 construct: The metal chelate purification implies a His tag, but none is described; also called target antigen
Experimental: (§1) The resulting mutants were then subjected to thermodynamic analysis by means of Isothermal Titration calorimeter. […] Binding enthalpy (ΔH) and binding coefficient (Ka) were calculated from the change of calorie during the above titration. Free Energy Change (ΔG) and Binding Entropy Change (ΔS) were then calculated from the above values.

| fold increase of Ka over h528Fv WT [fold] | Binder |
| --- | --- |
| 8 to 33 | h528Fv 5.0.0 (other) VH: QVQLVQSGAEVKKPGASVKVSCKASGYTFTSYWMHWVRQAPGQGLEWMGNIWPGSGGTNYAEKFKNRVTMTRDTSISTAYMELSRLRSDDTAVYYCARSGGPYFFDYWGQGTLVTVSS VL: DIVMTQSPLSLPVTPGEPASISCRSSQNIVHNNGITYLEWYLQKPGQSPQLLIYKVSDRFSGVPDRFSGSGSGTDFTLKISRVEAEDVGVYYCFQGSHIPPTFGQGTKVEIKR |

biological target: T1, soluble EGFR (human epithelial cell …); test: ITC, 50 uM Fv titrated into 5 uM soluble EGFR
Experimental: as §1

| Ka [M⁻¹] | TΔS [kcal/mol] | ΔG [kcal/mol] | ΔH [kcal/mol] | Binder |
| --- | --- | --- | --- | --- |
| 1.9e+07 | -4.66 | -9.92 | -14.6 | h528Fv WT (other, Fv fragment: VH and VL co-expressed in E. coli BL21; Purified by metal chelate chromatography; the tag is not described; also called wild type humanized Fv) VH: QVQLVQSGAEVKKPGASVKVSCKASGYTFTSYWMHWVRQAPGQGLEWMGNIYPGSGGTNYAEKFKNRVTMTRDTSISTAYMELSRLRSDDTAVYYCARSGGPYFFDYWGQGTLVTVSS VL: DIVMTQSPLSLPVTPGEPASISCRSSQNIVHNNGITYLEWYLQKPGQSPQLLIYKVSDRFSGVPDRFSGSGSGTDFTLKISRVEAEDVGVYYCFQGSHIPPTFGQGTKVEIKR |
| 5.05e+08 | -6.43 | -11.9 | -18.4 | h528Fv 5.98.0 (other) VH: QVQLVQSGAEVKKPGASVKVSCKASGYTFTSYWMHWVRQAPGQGLEWMGNIWPGQGGTNYAEKFKSRVTMTRDTSISTAYMELSRLRSDDTAVYYCARSGGPYFFDYWGQGTLVTVSS VL: DIVMTQSPLSLPVTPGEPASISCRSSQNIVHNNGITYLEWYLQKPGQSPQLLIYKVSDRFSGVPDRFSGSGSGTDFTLKISRVEAEDVGVYYCFQGSHIPPTFGQGTKVEIKR |
| 4.42e+08 | -4.88 | -11.8 | -16.7 | h528Fv 5.12.0 (other) VH: QVQLVQSGAEVKKPGASVKVSCKASGYTFTSYWMHWVRQAPGQGLEWMGNIWPGKGGTNYAEKFQKRVTMTRDTSISTAYMELSRLRSDDTAVYYCARSGGPYFFDYWGQGTLVTVSS VL: DIVMTQSPLSLPVTPGEPASISCRSSQNIVHNNGITYLEWYLQKPGQSPQLLIYKVSDRFSGVPDRFSGSGSGTDFTLKISRVEAEDVGVYYCFQGSHIPPTFGQGTKVEIKR |
| 5.24e+08 | -8.08 | -11.9 | -20 | h528Fv 5.11.T (other) VH: QVQLVQSGAEVKKPGASVKVSCKASGYTFTSYWMHWVRQAPGQGLEWMGNIWPGTGGTNYAEKFQQRVTMTRDTSISTAYMELSRLRSDDTAVYYCTRSGGPYFFDYWGQGTLVTVSS VL: DIVMTQSPLSLPVTPGEPASISCRSSQNIVHNNGITYLEWYLQKPGQSPQLLIYKVSDRFSGVPDRFSGSGSGTDFTLKISRVEAEDVGVYYCFQGSHIPPTFGQGTKVEIKR |
| 1.49e+08 | -9.85 | -11.2 | -21 | h528Fv 5.0.0 (other) VH: QVQLVQSGAEVKKPGASVKVSCKASGYTFTSYWMHWVRQAPGQGLEWMGNIWPGSGGTNYAEKFKNRVTMTRDTSISTAYMELSRLRSDDTAVYYCARSGGPYFFDYWGQGTLVTVSS VL: DIVMTQSPLSLPVTPGEPASISCRSSQNIVHNNGITYLEWYLQKPGQSPQLLIYKVSDRFSGVPDRFSGSGSGTDFTLKISRVEAEDVGVYYCFQGSHIPPTFGQGTKVEIKR |
| 4.95e+08 | -5.14 | -11.9 | -17 | h528Fv 5.73.0 (other) VH: QVQLVQSGAEVKKPGASVKVSCKASGYTFTSYWMHWVRQAPGQGLEWMGNIWPGNGGTNYAEQFKQRVTMTRDTSISTAYMELSRLRSDDTAVYYCARSGGPYFFDYWGQGTLVTVSS VL: DIVMTQSPLSLPVTPGEPASISCRSSQNIVHNNGITYLEWYLQKPGQSPQLLIYKVSDRFSGVPDRFSGSGSGTDFTLKISRVEAEDVGVYYCFQGSHIPPTFGQGTKVEIKR |
